Here are results for seven molecules from patent US20210009693A1 (MABSPACE BIOSCIENCES SUZHOU, published 2021).

Assay [1] has as its target T1, wild type human PD-L1-Fc protein (SEQ ID NO: 107) (human).
T1 construct: Extracellular human PD-L1 (amino acid 19-238) with Fc fragment of human IgG1, expressed in 293T cells and used as culture supernatant; also called WT PD-L1; wild-type PD-L1
Kind of assay: ELISA on captured PD-L1-Fc, as in Example 18A. (In an ELISA, binding on a coated surface is turned into a signal by an enzyme label.)

In assay [2] the target is T2, human PD-L1-Fc mutant E58A (human).
T2 construct: Position 58 counts on native human PD-L1 (NP_054862.1); also called E58A mutant
Briefly: ELISA on captured PD-L1-Fc, as in Example 18A.

The target of assay [3] is T3, Recombinant Mouse PD-L1/CD274 Protein (mPD-L1-his) (mouse, UniProt Q9EP73 19-238).
T3 construct: range 19-238; ACRO Biosystem PD1-M5220; also called mouse PD-L1-his
Kind of assay: ELISA, 20 ug/ml antibody on coated mouse PD-L1 (his-tagged per text, mPD-L1-Fc per sheet title). The method, then: High-binding clear polystyrene 96 well plates (Nunc) were coated with 100 μl/well of 1 μg/ml mouse PD-L1-his in high pH coating buffer and incubated overnight at 4° C. Then plates were washed once on an automatic plate washer using washing buffer (PBS+0.1% Tween 20 (Sigma)). 200 μl of blocking buffer (PBS+1% BSA+1% normal goat serum+0.05% Tween-20) was added to each well and incubated for 2 hours at room temp. Then add 20 μg/ml purified hybridoma mouse antibodies in dilution buffer (PBS+1% BSA+1% normal goat serum+0.01% Tween-20) and incubate for 1 hour at RT. The plates were then washed 3 times with 250 μl/well washing buffer. 100 μl/well of a solution of HRP conjugated goat anti-mouse Fc antibody (Abcam) in dilution buffer was then added to each well of the plate. After that the ELISA plates were allowed to incubate for 60 min at RT then plates were washed 3 times with 250 μl/well washing buffer. Finally, 100 μl/well of TMB was added to each well and the reaction was terminated using 0.64M H₂SO₄. The plates were read on a Thermo Multiscan FC at 450 nM (see FIG. 6F).

The target of assay [4] is hPD-L1 (antigen of the Biacore assay) (human, UniProt Q9NZQ7 19-238, limits assumed). Briefly: SPR (Biacore), antibody captured on anti-human Fc, antigen in flow. As for the experimental part:
A CM5 sensor chip was activated in each flow cell by 7-min injection (10 μl/min) of freshly prepared 1:1 50 mM N-hydroxysuccinimide (NHS): 200 mM 1-ethyl-3-(3-dimethylaminopropyl)-carbodiimide (EDC). Then anti-human Fc antibody (GE Healthcare) in a concentration of 10 μg/ml in 10 mM sodium acetate buffer PH 5.0 was injected onto the activated chip at 10 μl/min (HBS-EP running buffer: 10 mM HEPES, 150 mM NaCl, 3.4 mM EDTA, 0.005% surfactant P20, pH 7.4). The remaining active coupling sites were blocked by 7 min injection of 1M ethanolamine at 10 μl/min. The immobilization level of each flow cell is ˜9000RU. Antibodies were captured in FC2 by anti-human Fe IgG (GE Healthcare) to 200˜300RU. FC1 was used as the reference cell. Antigen was injected at varying concentrations after capture of antibody. The association time for antibody binding antigen is 180s. Surface Regeneration condition is 120s at 10 μl/min in Gly pH1.5. The signals with captured antibody subtracted from those without captured antibody were calculated with Biacore X100 evaluation software ver. 2.0 (Biacore).
On the technique in general: In SPR one partner is held on a chip, and binding of the other changes the refractive index at the surface.

Assay [5] has as its target T4, Human PD-L1/CD274 with C-Fc Tag (hPD-L1-Fc) (human, UniProt Q9NZQ7 19-238).
T4 construct: range 19-238; ACRO Biosystem PD1-H5258, made in HEK293; also called human PD-L1-Fc; not shown: Fc fragment of human IgG1 at C-terminus
Briefly: blocking ELISA on coated hPD-L1-Fc; blocked ligand: biotinylated hPD-1-N297A. As for the experimental part:
High-binding clear polystyrene 96 well plates (Nunc) were coated with 100 μl/well of coating solution consisting of 1 μg/ml hPD-L1-Fc overnight at 4° C. Then the plates were washed once on an automatic plate washer using washing buffer (PBS+0.1% Tween 20 (Sigma)). 200 μl of blocking buffer (PBS+1% BSA+1% normal goat serum+0.05% Tween-20) was added to each well and incubated 2 hours at room temp. […] The plates were then washed 3 times using the method described above. […] After the plates were washed 3 times, 100 μl/well of a solution of 1:5000 diluted HRP conjugated Neutravidin antibody (Pierce) in dilution buffer was then added to each well of the plate. After that the ELISA plates were allowed to incubate for 60 min at RT, then the plates were washed 3 times with 250 μl/well washing buffer. Finally, 100 μl/well of TMB was added to each well and the reaction was terminated using 0.64M H₂SO₄. The plates were read on a Thermo Multiscan FC at 450 nM (see FIG. 18A to 18D).

Assay [6] addresses T5, Recombinant Human PD-L1/CD274 Protein (hPD-L1-his) (human, UniProt Q9NZQ7 19-238).
T5 construct: range 19-238; ACRO Biosystem PD1-H5229, made in HEK293; also called human PD-L1-his; hPD-L-his
Kind of assay: ELISA on coated hPD-L1-his.

Residue numbers refer to the chain shown, from its start.

T2 sequence (chain, as listed by the source E58A E58A limits assumed): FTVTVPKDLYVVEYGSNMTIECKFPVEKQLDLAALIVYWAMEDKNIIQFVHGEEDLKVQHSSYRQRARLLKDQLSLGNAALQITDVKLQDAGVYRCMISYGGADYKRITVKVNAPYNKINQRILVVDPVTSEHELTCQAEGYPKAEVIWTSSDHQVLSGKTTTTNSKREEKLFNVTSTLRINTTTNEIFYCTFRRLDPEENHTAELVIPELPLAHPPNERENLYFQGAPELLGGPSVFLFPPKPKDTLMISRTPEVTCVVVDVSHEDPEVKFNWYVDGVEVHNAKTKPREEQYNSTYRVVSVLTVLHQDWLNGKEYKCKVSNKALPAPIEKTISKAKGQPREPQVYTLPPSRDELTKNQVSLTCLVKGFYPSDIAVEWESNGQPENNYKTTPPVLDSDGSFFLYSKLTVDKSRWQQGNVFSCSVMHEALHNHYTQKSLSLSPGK
T5 sequence (Q9NZQ7 other isoform, or with tags, fused parts or gaps limits assumed): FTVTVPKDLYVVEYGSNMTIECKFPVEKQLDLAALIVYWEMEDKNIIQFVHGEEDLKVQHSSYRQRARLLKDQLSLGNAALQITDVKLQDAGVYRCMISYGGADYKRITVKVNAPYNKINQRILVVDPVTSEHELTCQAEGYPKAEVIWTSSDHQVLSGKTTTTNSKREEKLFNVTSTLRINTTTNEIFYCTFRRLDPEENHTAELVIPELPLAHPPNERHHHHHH
T1 sequence (chain, as listed by the source limits assumed): as the sequence (chain, as listed by the source E58A E58A limits assumed) above, with A40E counted along it
Chain of hPD-L1 (antigen of the Biacore assay) (Q9NZQ7 19-238 limits assumed): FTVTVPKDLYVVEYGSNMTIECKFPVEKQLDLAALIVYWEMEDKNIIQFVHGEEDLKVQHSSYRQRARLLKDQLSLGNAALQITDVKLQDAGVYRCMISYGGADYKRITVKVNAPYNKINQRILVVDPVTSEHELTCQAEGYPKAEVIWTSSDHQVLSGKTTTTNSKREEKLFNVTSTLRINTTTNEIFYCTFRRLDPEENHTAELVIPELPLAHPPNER
T4 sequence (Q9NZQ7 19-238 limits assumed): as above
T3 sequence (Q9EP73 other isoform, or with tags, fused parts or gaps limits assumed): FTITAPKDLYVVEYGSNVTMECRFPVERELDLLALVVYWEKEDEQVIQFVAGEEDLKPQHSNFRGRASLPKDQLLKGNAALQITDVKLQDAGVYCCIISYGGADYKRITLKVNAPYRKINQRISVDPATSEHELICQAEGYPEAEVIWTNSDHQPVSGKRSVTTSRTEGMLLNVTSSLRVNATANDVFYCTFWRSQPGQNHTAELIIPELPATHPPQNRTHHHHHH

B1: 18G4 (antibody, V domains shown)
VH: QVQLQQPGTALVKPGASVKLSCKASGYTFSSYYIHWVKQRPGQGLEWIGNINPFNGGSIYNEKFKNKASLTVDTSSNTAYMQLSSLTSEDSAVYYCARWHFDYWGQGTSLTVSS
VL: DIVMTQSPSSLAVTAGEKVTLKCKSSQSLLWSGNQNNYLSWYQQKQGQPPKLLIYGASIRESWVPDRFTGSGSGTDFTLTIGNVSAEDLAVYYCQHNHGSFLPYTFGGGTRLEIK
notes: Mouse monoclonal from hybridoma; also called mouse monoclonal antibody 18G4
Consider B1, for which, in assay [1], the “Mean OD450” value was found to be 1.45 OD450, the “OD450 nM of sample-1” value amounted to 1.56 OD450 and the “OD450 nM of sample-2” value was found to be 1.34 OD450. Also, in assay [2], the “% of binding of Ab to E58A mutant vs. that to WT PD-L1” value was 117%, the “Mean OD450” value turned out to be 1.7 OD450, the “OD450 nM of sample-1” value is 1.52 OD450 and the “OD450 nM of sample-2” value is 1.88 OD450. In addition, in assay [3], the binding result is listed as “binds”.

B2: 18G4-chimeric (antibody, V domains shown)
VH: B1 VH
VL: B1 VL
notes: Mouse variable regions fused to a human IgG1 constant region
As usually defined, the Kd is the constant that tells how readily two partners part at equilibrium. What is called koff is a measure of how fast the partners let go of each other. Read a low koff as slow dissociation. What is called kon is the rate constant with which the complex forms. In assay [4], B2 gave a Kd of 11.3 nM, a koff of 0.00515 s⁻¹ and a kon of 450000 M⁻¹ s⁻¹.

B3: 4B6-H4L3 (antibody, V domains shown)
VH: QVQLVQSGAEVKKPGASVKVSCKASGYVFTDYYMNWVRQAPGQGLEWIGDINPNNGGTSYNQKFQGRVTVTVDTSIRTAYMELSRLRSDDTAVYYCVKWGDGPFAYWGQGTLVTVSS
VL: DIQMTQSQSSLSASVGDRVTITCQASQNVGAAVAWYQQKPGKAPKLLIYSASNRYTGVPSRFSGSGSGTDFTLTISSMQPEDIATYFCQQYSNYPTFGSGTKLGIK
notes: Humanized; also called humanized 4B6 H4L3
In assay [4], B3 registered a Kd of 11.3 nM, a koff of 0.00148 s⁻¹ and a kon of 132000 M⁻¹ s⁻¹. The “IC50 (read off the curve)” value in assay [5] is about 0.03 µg/mL.

B4: 4B6-H4L4 (antibody, V domains shown)
VH: B3 VH
VL: B3 VL with Q8P, R54L, M78L
notes: produced in 293 cells; light chain constant region not described; also called humanized 4B6 H4L4
As for B4, the “IC50 (read off the curve)” value in assay [5] was about 0.04 µg/mL.

B5: 23F11-H4L6 (antibody, V domains shown)
VH: QVQLVQSGAEVKKPGASVKLSCKASGYIFTTYWMHWVKQRPGQGLEWIGMIQPNSGGTKYNEKFKKKATLTVDKSISTAYMELSRLTSDDTAVYYCARGAGTVDYFDYWGQGSTLTVSS
VL: DIVLTQSPASLAVSVGQRATITCRASESVDIYGNSFMHWYQQKPGQPPKLLIYRASNLESGIPARFSGSGSRTDFTLTINPVEANDTATYYCHQSTEDPYTFGGGTKLEIK
notes: produced in 293 cells; light chain constant region not described; also called humanized 23F11 H4L6
For orientation: EC50 (read off the curve) means the concentration needed to bring the measured effect to its halfway point. Consider B5, for which the “EC50 (read off the curve)” value in assay [6] is about 0.002 µg/mL. Further, the “IC50 (read off the curve)” value in assay [5] is about 0.04 µg/mL.

B6: 23F11-H6L4 (antibody, V domains shown)
VH: B5 VH with L20V, K38R, R40A, K74T, T87R
VL: B5 VL with H93Q
notes: Humanized; also called humanized 23F11 H6L4
Take B6: the “EC50 (read off the curve)” value in assay [6] is about 0.002 µg/mL. In assay [4], this molecule gave a Kd of 103 nM, a koff of 0.0448 s⁻¹ and a kon of 435000 M⁻¹ s⁻¹. The “IC50 (read off the curve)” value in assay [5] is about 0.04 µg/mL.

B7: 23F11-H6L6 (antibody, V domains shown)
VH: B5 VH with L20V, K38R, R40A, K74T, T87R
VL: B5 VL
notes: produced in 293 cells; light chain constant region not described; also called humanized 23F11 H6L6
On to B7, for which, in assay [6], the “EC50 (read off the curve)” value is about 0.004 µg/mL. Moreover, the “IC50 (read off the curve)” value in assay [5] was about 0.05 µg/mL.
